Experiment: yeast display, Sf9 membrane polyspecificity reagent, FACS + sequencing; frameworks hold sequencing errors
Method in brief: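 Using colony PCR, genes from sorted yeast display clones were amplified, then sequenced on MiSeq at 2 × 250 and filtered by CDR length. The clones had been stained with 10% biotinylated, detergent-solubilized Sf9 membrane reagent for 1 hour at 4 °C and sorted by FACS into low and high (top ~1%) gates on anti-HA and streptavidin fluorescence. Polyreactivity labels come from the gate of origin.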

QVQLVESGGGLVQAGGSLRLSCAASVFTLWLNAMGWYRQAPGKERELVAAITTSDDGTYYADSVKGRFTISRDNAKNTVYLQMNSLKPEDTAVYYCAADYYSVLYDYWGQGTQVTVSS
polyreactivity (PSR sort gate): low polyreactivity

QVQLVESGGGLVQAGGSLRLSCAASVGIYSQNVRGWYRQAPGKEWELVAAISRRGGRTYYADSVKGRFKISRDNAKNTVYLQMNSLKPEDTAVYYCATLSPERRVYYTYSGLFEYWGQGTQVTVSS
polyreactivity (PSR sort gate): high polyreactivity

QVQLVESGGGLVQAGGSLRLSCAASVIIFTRYAMGWYRQATGKERELVAGITRRGGSTYYADSVKGRFTISRDNAKNTVYLQMKSLKPEDTAVYYCNTYQRDYPYGVEDDSWGQGTEVTVSS
polyreactivity (PSR sort gate): high polyreactivity

QVQLVESGGGLVQAGGSLRLSCAASVITFGRNTMGWYRQAPGKERELVAAISWNGDSTYYADSVKGRFTISRDNAKNTVYFQMNSLKPEDTAVYFCNADDVFLYQTDGLGDYWGQGTQVTVSS
polyreactivity (PSR sort gate): low polyreactivity

QVQLVESGGGLVQAGGSLRLSCAASVLIMGYYAMGWYRQAPGKERELVAAISSTGSTNYADSVKGRFTISRDNAKNTVYLQMNTLKQEDTAVYYCAAVPPRKDYQHMDYWGQGTQVTVSS
polyreactivity (PSR sort gate): low polyreactivity

QVQLVESGGGLVQAGGSLRLSCAASVRISVFNAMGWYRKPPGKESELVAGISNGGSTNYADSVKGRFTISRDNAKNTVYLQMNSLKPEDTAVYYCANDEPKVCRAFDYWGQGTQVTVSS
polyreactivity (PSR sort gate): low polyreactivity

QVQLVESGGGLVQAGGSLRLSCAASVRTFWYNAMGWYRQAPGKERELVAVISSGAITYYADSVKGRFTISRDNAKNTVYLQMNSLKPEDTAVYYCNAQRRGTYYWGQGTQVTVSS
polyreactivity (PSR sort gate): high polyreactivity

QVQLVESGGGLVQAGGSLRLSCAASVSIFGVKVMGWYRQAPGKERELVAAIDVSDTSTYYADSVKGRFTISRDNAKNTVYLQMNSLKAEDTAVYYCAARRTRYPFQFDYWGQGTQVTVSS
polyreactivity (PSR sort gate): low polyreactivity

QVQLVESGGGLVQAGGSLRLSCAASVSIFKVNAMGWYRQAPGKERELVAAISTSGSRTYYADSVKGRFTISRDNAKNTVYLQMNSLKPEDTAVYYCADDSYAGIVRYGYWGKGTQVTVSS
polyreactivity (PSR sort gate): high polyreactivity

QVQLVESGGGLVQAGGSLRLSCAASVSNFPPYVMGWYRQAPGKERELVAAITWSSGSTYYADSVKGRFTISRDNAKNTVYLQMNRLKPEDTAVYYCAAVLPFKYDYWGQGTQVTVSS
polyreactivity (PSR sort gate): low polyreactivity

QVQLVESGGGLVQAGGSLRLSCAASVSTFAYYAMGWYRQAPGKERELVAVISVSGDGTSTYYADSVKGRFTISRDNAKNTVYLQMNSLKPEDTAVYNCAAEQVLVGGHTYYLTYDYWGQGTQVTVSS
polyreactivity (PSR sort gate): low polyreactivity

QVQLVESGGGLVQAGGSLRLSCAASVSTFSGYAMGWYRQAPGKERELVAAISSSGGGTYYADSVKGRFTISRDNAKNTVYLQMNSLKPEDTAVFYCAAYKYFLGFVWYDYWGQGTQVTVSS
polyreactivity (PSR sort gate): high polyreactivity

QVQLVESGGGLVQAGGSLRLSCAASVSTIARYAMGRYRQAPGKERELVAAISRTGRTYYADSVKGRFTISRDNAKNTVYLQMNSLKPEDTAVYYCNAYYGPRGYGYWGQGTQVTVSS
polyreactivity (PSR sort gate): high polyreactivity

QVQLVESGGGLVQAGGSLRLSCAASVSTLRYYAMGWYRQAPGKERELVAAISYSGGSTYYADSVKGRFTISRDNAKNTVYLQMNRLKPEDTAVYYCNAEWGWRRYGSSYVYWGQGTQVTVSS
polyreactivity (PSR sort gate): high polyreactivity

QVQLVESGGGLVQAGGSLRLSCAASVYAMGWYRQAPGKERELVAAITDSGSTNYADSVKGRFTISRDNAKNTVYLQMNSLKPEDNAVYYCNADPYYATGSWARLPLYQYDYWGQGTQVTVSS
polyreactivity (PSR sort gate): low polyreactivity

QVQLVESGGGLVQAGGSLRLSCAASVYGMGWYRQAPGKERELVAAISNGGTTYYADSVKGRFTISRDNAKNTVYLQMNSLKPEDTAVYYCARSYRSDGSRFGYWGQGTQVTVSS
polyreactivity (PSR sort gate): low polyreactivity

QVQLVESGGGLVQAGGSLRLSCAATGFIVAWYAMGWYRQAPGKERELVAAISSSVGSTYYADSVKGRFTISRDIAKNTVYLQMNSLKPEDTAVYYCNADEYWASGYDPYDYWGQGTQVTVSS
polyreactivity (PSR sort gate): low polyreactivity

Source: the nanobody polyreactivity screen of Harvey et al. (2022)
